The text below walks through data of US20040106120A1, “Diagnosis and treatment of disease” (priority 2000, published 2004).

One experiment has as its system cultured skin equivalent. The experiment is described as follows: Treatment of skin equivalents with other protease inhibitors for 24 h, light and electron microscopy. In kind it is cell-based. Particulars: SLPI 500 nM, cultured for 24 h. The procedure: Skin equivalent (+ and − inhibitor) is cultured with the inhibitor for 24 h. Skin equivalent are taken the preparation of histological sections. Sections are then analysed by light and electron microscopy.
SLPI (500 nM) is added to cultured skin equivalent, and cultured for 24 h. Skin equivalent (+ and − SLPI) are taken the preparation of sections. Sections are then analysed in light and electron microscopy.
SCCE antibody is added is added to cultured skin equivalent, and cultured for 24 h. Skin equivalent (+ and − SCCE antibodies) are taken the preparation of sections. Sections are then analysed in light and electron microscopy.
SCTE antibody is added is added to cultured skin equivalent, and cultured for 24 h. Skin equivalent (+ and − SCTE antibodies) are taken the preparation of sections. Sections are then analysed in light and electron microscopy.

Experiment [1] is described as follows: Topical protease inhibitor in emollient cream on volunteer's arm skin for 14 days, biopsy histology. It is filed as in vivo. Particulars: human volunteer, emollient cream applied daily to arm for 14 days under occlusion. From the text:
SPLI protease inhibitor is extracted from normal human skin of a volunteer. Alternatively, a nucleic acid sequence encoding the protease inhibitor from the individual is cloned using PCR, or library screening. The individual's protease inhibitor sequence is cloned into an expression vector, and recombinant protease inhibitor expressed and purified using conventional and known means.
The inhibitor is then formulated in an emollient cream base. Two fingertip units of this formulation are applied to an area of the volunteer's skin on the arm measuring 2×2 cm. The area is covered with a plastic capsule which is secured in place with a cotton bandage. The cream is reapplied to the same area each day for 14 consecutive days.
On day 14 the cup is removed and a 1×0.5 cm ellipse skin biopsy is taken from the treated area and a similar biopsy taken from an untreated area on the opposite arm.

Experiment [2] relates to corneodesmosomes in stratum corneum tape strips. The experiment is described as follows: Treatment of tape strips from psoriatic skin with proteases, corneodesmosome density by electron microscopy. Further details: species or system human. Particulars: 22-50 nM recombinant SCCE or SCTE, 1-6 h at 37° C. The procedure: Tape strips are obtained according to a method described by Guerrin et al, 1998.
Small pieces of tape strips from control patients along with patients suffering from the skin conditions eczema, psoriasis, dermatitis and psoriasis are fixed for 2 h at 4° C. in Karnovsky fixative (2% paraformaldehyde, 2.5% gluteraldehyde in 0.1M phosphate buffer, pH 7.4). The samples are then washed three times in 0.1M phosphate buffer (pH7.4) containing 10% sucrose for 30 minutes each at 4° C.
Secondary fixation is carried out in aqueous 2% osmium tetroxide solution for 1 hour at room temperature. Dehydration is through a graded series of ethanol at room temperature (75% ethanol for 15 minutes; 95% ethanol for 15 minutes; 2 washes of 100% ethanol for 15 minutes; 100% ethanol dried over anhydrous copper sulphate for 15 minutes).
For resin embedding, samples are first placed in the intermediate solvent, propylene oxide, for two changes of 15 minutes duration. This is followed by infiltration in a 50:50 mixture of propylene oxide:araldite resin overnight at room temperature. […]
Ultrathin sections (70-90 nm) are cut on an ultramicrotome. […] Electron micrographs are recorded on Agfa Scientific 23D56 EM film.
Corneodesmosome density (area occupied by corneodesmosomes divided by total area of micrograph) is measured on electron micrographs of tape strips of each condition. […]

The next experiment relates to Desmocollin. The experiment is described as follows: Cleavage of adhesion proteins from human epidermis by recombinant SCCE/SCTE (immunoblot). In kind it is biochemical. Particulars: human epidermis protein extract incubated with active recombinant enzyme at 37 C. Here is the method:
(§1) Recombinant ProSCCE is produced and purified as described above. Recombinant ProSCCE is activated with agarose-bound trypsin, as described in Brasttsand & Egelrud, 1999.
(§2) Proteins are extracted from human epidermis in the presence of a detergent (TENP-40 buffer extract) and incubated with active SCCE for 37 C. for 4 h. The reactions are stopped by boiling for 2 mins after Laemmli's sample buffer is added. The proteins are immunoblotted with antibodies against corneodesmosomal proteins.

The test system of another experiment is Desmoglein. The description is as above. It is filed as biochemical. Particulars: human epidermis protein extract incubated with active recombinant enzyme at 37 C. The procedure:
as §1, §2

The next experiment concerns the target T1, Envoplakin (Homo sapiens, UniProt Q92817).
T1 construct: The native form of Envoplakin has a molecular weight of between 124-209 kDa; from tissue; host or cells: human epidermis (TENP-40 buffer extract)
The description is as above. In kind it is biochemical. To be noted: human epidermis protein extract incubated with active recombinant enzyme at 37 C. Here is the method: as §1, §2

The target in a further experiment is T2, Corneodesmosin (Homo sapiens, UniProt Q15517).
T2 construct: The native form of corneodesmosin has a molecular weight of between 50 and 56 kDa; from tissue; host or cells: human epidermis (TENP-40 buffer extract)
T2 sequence (Q15517 33-529): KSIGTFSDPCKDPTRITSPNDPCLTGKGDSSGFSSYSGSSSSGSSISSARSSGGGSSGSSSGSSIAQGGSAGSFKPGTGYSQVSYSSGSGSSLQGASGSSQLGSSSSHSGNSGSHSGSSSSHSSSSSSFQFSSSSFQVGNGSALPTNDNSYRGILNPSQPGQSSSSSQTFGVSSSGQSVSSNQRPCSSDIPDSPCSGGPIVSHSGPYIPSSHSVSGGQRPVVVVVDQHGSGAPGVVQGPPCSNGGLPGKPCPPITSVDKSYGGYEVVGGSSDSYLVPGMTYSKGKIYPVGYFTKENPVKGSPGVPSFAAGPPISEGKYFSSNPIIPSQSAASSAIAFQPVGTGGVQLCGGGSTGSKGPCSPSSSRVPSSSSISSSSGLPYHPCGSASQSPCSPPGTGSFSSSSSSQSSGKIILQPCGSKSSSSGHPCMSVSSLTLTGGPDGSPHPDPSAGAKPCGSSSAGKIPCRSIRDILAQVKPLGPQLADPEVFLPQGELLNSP
The experiment is described as above. To be noted: human epidermis protein extract incubated with active recombinant enzyme at 37 C. It is filed as biochemical. The procedure: as §1, §2

The next experiment addresses T3, Plakoglobin (Homo sapiens, UniProt P14923).
T3 construct: The native form of plakoglobin has a molecular weight of between 85 kDa and 75 kDa; from tissue; host or cells: human epidermis (TENP-40 buffer extract)
T3 sequence (P14923 1-745): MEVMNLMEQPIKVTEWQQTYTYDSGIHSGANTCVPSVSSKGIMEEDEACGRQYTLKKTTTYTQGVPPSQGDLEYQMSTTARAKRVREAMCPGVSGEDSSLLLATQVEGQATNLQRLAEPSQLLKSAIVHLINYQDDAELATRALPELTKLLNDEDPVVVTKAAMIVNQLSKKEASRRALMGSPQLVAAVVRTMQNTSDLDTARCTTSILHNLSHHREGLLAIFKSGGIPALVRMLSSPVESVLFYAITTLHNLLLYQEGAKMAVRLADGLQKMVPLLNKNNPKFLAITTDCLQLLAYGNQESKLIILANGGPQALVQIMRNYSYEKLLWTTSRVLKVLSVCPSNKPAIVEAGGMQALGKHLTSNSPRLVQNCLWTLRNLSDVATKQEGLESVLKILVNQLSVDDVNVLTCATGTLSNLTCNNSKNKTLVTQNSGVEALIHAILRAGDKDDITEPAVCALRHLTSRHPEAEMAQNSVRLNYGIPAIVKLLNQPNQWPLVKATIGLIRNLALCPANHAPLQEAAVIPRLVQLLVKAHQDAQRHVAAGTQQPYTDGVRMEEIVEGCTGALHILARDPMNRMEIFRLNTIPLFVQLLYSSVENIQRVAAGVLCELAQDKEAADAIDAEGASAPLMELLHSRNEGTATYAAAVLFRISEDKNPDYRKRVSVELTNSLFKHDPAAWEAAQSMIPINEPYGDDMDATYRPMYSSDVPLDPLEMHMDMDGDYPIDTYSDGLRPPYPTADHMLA
The description is as above. In kind it is biochemical. Particulars: human epidermis protein extract incubated with active recombinant enzyme at 37 C. Here is the method:
as §1, §2

Another experiment has as its system Desmoplakin. The experiment is described as above. To be noted: human epidermis protein extract incubated with active recombinant enzyme at 37 C. It is filed as biochemical. Here is the method: as §1, §2

T1 sequence (Q92817 whole entry): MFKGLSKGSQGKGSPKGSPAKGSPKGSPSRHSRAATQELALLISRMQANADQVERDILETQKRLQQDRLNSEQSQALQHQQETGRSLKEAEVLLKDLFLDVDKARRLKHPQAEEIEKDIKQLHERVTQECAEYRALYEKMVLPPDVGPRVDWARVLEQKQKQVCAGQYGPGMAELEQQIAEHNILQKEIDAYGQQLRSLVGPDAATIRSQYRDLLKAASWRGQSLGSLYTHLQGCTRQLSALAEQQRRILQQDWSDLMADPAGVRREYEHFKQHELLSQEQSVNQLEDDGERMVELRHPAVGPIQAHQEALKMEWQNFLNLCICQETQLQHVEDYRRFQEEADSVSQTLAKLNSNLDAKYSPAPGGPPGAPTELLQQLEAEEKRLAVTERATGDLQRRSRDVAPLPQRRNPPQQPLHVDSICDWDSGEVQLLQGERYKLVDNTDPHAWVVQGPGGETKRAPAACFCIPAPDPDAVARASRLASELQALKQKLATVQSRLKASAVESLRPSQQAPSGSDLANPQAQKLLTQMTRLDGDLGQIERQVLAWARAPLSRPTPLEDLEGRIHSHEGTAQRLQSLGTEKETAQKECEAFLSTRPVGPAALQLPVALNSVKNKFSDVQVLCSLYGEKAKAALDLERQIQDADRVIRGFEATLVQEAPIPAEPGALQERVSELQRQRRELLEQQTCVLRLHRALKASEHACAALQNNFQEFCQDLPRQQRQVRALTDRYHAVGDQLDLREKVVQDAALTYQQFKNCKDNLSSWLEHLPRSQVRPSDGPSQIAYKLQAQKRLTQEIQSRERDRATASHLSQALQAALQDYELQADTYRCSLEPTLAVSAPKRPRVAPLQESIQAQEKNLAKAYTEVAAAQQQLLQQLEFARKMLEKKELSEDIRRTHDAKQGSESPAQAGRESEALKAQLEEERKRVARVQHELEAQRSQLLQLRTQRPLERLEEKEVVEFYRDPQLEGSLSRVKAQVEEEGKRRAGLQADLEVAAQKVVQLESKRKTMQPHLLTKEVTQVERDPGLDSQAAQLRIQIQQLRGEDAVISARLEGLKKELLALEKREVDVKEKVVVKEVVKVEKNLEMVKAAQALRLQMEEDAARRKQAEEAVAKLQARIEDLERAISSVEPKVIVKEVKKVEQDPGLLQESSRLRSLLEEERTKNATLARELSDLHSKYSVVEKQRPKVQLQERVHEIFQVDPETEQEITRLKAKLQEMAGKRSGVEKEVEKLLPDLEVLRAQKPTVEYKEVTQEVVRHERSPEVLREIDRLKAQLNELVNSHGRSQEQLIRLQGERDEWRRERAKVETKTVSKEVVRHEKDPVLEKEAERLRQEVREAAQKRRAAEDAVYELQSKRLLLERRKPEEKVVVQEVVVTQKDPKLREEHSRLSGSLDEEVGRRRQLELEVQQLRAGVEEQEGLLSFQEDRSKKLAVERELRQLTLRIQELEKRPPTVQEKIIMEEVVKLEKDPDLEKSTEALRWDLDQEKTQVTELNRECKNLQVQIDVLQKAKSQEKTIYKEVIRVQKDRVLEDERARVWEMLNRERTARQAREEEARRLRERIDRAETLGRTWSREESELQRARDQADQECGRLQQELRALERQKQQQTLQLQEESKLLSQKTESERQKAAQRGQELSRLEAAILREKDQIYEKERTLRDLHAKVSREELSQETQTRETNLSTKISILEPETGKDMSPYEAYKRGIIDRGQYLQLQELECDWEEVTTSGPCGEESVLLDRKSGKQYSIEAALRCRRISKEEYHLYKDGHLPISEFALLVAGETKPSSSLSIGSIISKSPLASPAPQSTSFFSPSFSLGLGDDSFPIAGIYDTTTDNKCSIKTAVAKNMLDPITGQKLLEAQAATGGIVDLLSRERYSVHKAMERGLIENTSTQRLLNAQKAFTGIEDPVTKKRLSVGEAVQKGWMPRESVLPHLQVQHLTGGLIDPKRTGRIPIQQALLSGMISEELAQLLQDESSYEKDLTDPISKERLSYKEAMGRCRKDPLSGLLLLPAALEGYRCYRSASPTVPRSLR

B1: SLPI: Secretory Leukoprotease Inhibitor protein added to cultured skin equivalent (protein, UniProt P03973 26-132, looked up)
Antileukoproteinase: SGKSFKAGVCPPKKSAQCLRYKKPECQSDWQCPGKKRCCPDTCGIKCLDPVDTPNPTRRKPGKCPVTYGQCLMLNPPNFCEMDGQCKRDLKCCMGMCGKSCVSPVKA
For the molecule B1, the “effect on stratum corneum thickness and skin barrier of skin equivalent” value in the experiment on cultured skin equivalent was “increase the thickness of the stratum corneum”.

B2: SPLI protease inhibitor: SLPI extracted from normal human skin or recombinant, formulated in an emollient cream base (protein, UniProt P03973 26-132, looked up)
Antileukoproteinase: B1 Antileukoproteinase
modifications: emollient cream formulation
notes: SLPI extracted from normal human skin or recombinant, formulated in an emollient cream base
For B2, in [1], the “histology of stratum corneum, treated biopsy compared with control” value was “thickening of the stratum corneum with loosely adherent scales”; the “histology of viable epidermis, treated biopsy compared with control” value was “parakeratosis and thickening”.

B3: SCCE: recombinant Stratum Corneum Chymotryptic Enzyme, activated with agarose-bound trypsin (protein, UniProt P49862 30-253, looked up)
Kallikrein-7: IIDGAPCARGSHPWQVALLSGNQLHCGGVLVNERWVLTAAHCKMNEYTVHLGSDTLGDRRAQRIKASKSFRHPGYSTQTHVNDLMLVKLNSQARLSSMVKKVRLPSRCEPPGTTCTVSGWGTTTSPDVTFPSDLMCVDVKLISPQDCTKVYKDLLENSMLCAGIPDSKKNACNGDSGGPLVCRGTLQGLVSWGTFPCGQPNDPGVYTQVCKFTKWINDTMKKHR
modifications: activated with trypsin
Regarding B3, the “number of corneodesmosomes in treated versus untreated stratum corneum” value in experiment [2] was “decrease significantly”. Further, in the experiment with Desmocollin, the “proteolysis of Desmocollin” value is given as “proteolysed”. The “proteolysis of Desmoglein” value with Desmoglein is “proteolysed”. The “proteolysis of Envoplakin” value with Envoplakin was “proteolysed”. The “proteolysis of Corneodesmosin” value in the experiment with Corneodesmosin is on record as “proteolysed”. Moreover, in the experiment with Plakoglobin, the “proteolysis of Plakoglobin” value is “proteolysed”. In the experiment on Desmoplakin, the “proteolysis of Desmoplakin” value is on record as “proteolysed”.
